Consider two substances from publication PMC8132391.

In assay [1] the target is Bn86287 (104-607 amino acids), COG4337 protein of Bigelowiella natans (Bigelowiella natans). As to the kind of experiment: SEC-MALS; Superdex 200 increase 10/300 GL, 293 K, 20 mM Tris-HCl pH 8.0, 100 mM NaCl; Bn86287 3.7 mg/ml and all2909 4.9 mg/ml, 30 ul injected. (In general: SEC sorts molecules by how far they enter the pores of the column.)
Assay [2] concerns the target all2909, COG4337 protein of Anabaena sp. PCC 7120, without N-terminal leader (Anabaena sp. PCC 7120) (UniProt Q8YT18). The assay is described as above.

“Bn86287 (104-607 amino acids), COG4337 protein of Bigelowiella natans (enzyme)” returned a stoichiometry N in assay [1] of 2. On to “all2909, COG4337 protein of Anabaena sp. PCC 7120, without N-terminal leader (from UniProt Q8YT18 31-205) (enzyme)”, for which the stoichiometry N in assay [2] was 4.

One may read the stoichiometry N as the number of molecules, sites or subunits per partner or assembly.
